Data as given in the supplement of paper PMC10266784.

B1: library; numbered along this chain (parent)
chain: MAAAAAAAAEQQSSNGPVKKSMREKAVERRSVNKEHNSNFKAGYIPIDEDRLHKTGLRGRKGNLAICVIILLFILAVINLIITLVIWAVIRIGPNGCDSMEFHESGLLRFKQVSDMGVIHPLYKSTVGGRRNENLVITGNNQPIVFQQGTTKLSVENNKTSITSDIGMQFFDPRTQNILFSTDYETHEFHLPSGVKSLNVQKASTERITSNATSDLNIKVDGRAIVRGNEGVFIMGKTIEFHMGGNMELKAENSIILNGSVMVSTTRLPSSSSGDQLGSGDWVRYKLCMCADGTLFKVQVTSQNMGCQISDNPCGNTH

Variants of: B1
Assay: SGCB cell-surface expression functional score (HA stain, bin4 vs bin1, normalised to synonymous) (log10 ratio); higher = more cell-surface SGCB (functional)
How it was run: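 Human beta-sarcoglycan, tagged with HA and fused to YFP, was built into codon-saturation libraries and delivered by lentivirus at MOI <0.1 into HEK293 cells that stably express alpha-, gamma- and delta-sarcoglycan. After 72 hours, YFP-positive cells were sorted and grown for 5–7 days, then stained on ice with Alexa Fluor 647 anti-HA, fixed, sorted into four 5% intensity bins and amplicon-sequenced. Each variant's functional score is the log ratio of its frequency in the highest bin to that in the lowest bin, taken as the median across codons and transductions. Transductions were done in duplicate, and synonymous variants were scaled per section to mean 0, SD 0.5.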

SGCB cell-surface expression functional score (log10) of substitutions, site by site:
R207: D -1.43 | Y -0.73 | K -0.81 | H -0.5 | T -0.69 | N -0.12 | W -0.06 | L -0.39 | F -1.57 | Q -0.74 | I -1.03 | E -2.46 | V -0.64 | P -1.15 | A -1.05 | M 0.13 | G -1.44 | C -0.91 | S -1.22
A212: Y 0.86 | T 0.02 | N -0.89 | D 0.56 | Q 0.72 | H -0.76 | W -0.44 | M 0.16 | L -0.95 | I 0.23 | E 0.91 | R -1.47 | K -1.05 | P -0.25 | C -0.61 | F -0.4 | G 0.11 | V -0.06 | S 0.29
N211: C -1.44 | E 0.12 | F -0.28 | Q -0.03 | M 0.07 | P -0.12 | W -3.13 | G -3.64 | K 0.09 | Y 0 | S -0.02 | V -0.91 | T -0.4 | H -0.34 | R -0.82 | I -0.69 | A -0.33 | L -0.58 | D -0.68
T213: C -0.94 | V -1.02 | N 0.03 | P -1.5 | G 0.65 | D -0.81 | I 0.5 | F -0.31 | E 0.86 | H -0.04 | L -0.5 | M 0.76 | A -0.44 | Q 0.13 | S 0.08 | R 0.18 | K 0.23 | Y -0.24
S214: Q -0.1 | N -0.1 | L -1.06 | H -0.9 | T -0.12 | C -0.08 | G -0.32 | R -0.31 | F -1.55 | K -0.46 | P -1.11 | A 0.25 | V -0.18 | W -1.07 | M -0.57 | I -0.69
S210: D -0.42 | K -1.43 | Y -2.28 | L -1.26 | E -1.75 | G -0.16 | P -1.92 | W -1.35 | A 0.29 | C -0.17 | H -0.47 | F -0.9 | V -1.36 | Q -1.03 | R -1.31 | M -1.94 | N -1.62 | I -0.9 | T -0.61
E206: D 0.33 | P -0.42 | W 0.91 | T 0.4 | V 0.45 | S 0.16 | N 0.66 | I -0.47 | A 1.04 | Q -0.93 | Y -0.12 | L -0.27 | C -0.71 | F 0.19 | G -0.37 | M 1.59 | H 0.42 | R -0.66 | K -0.41
T205: W -2.65 | Y -1.37
I208: K -1.11 | W -1.04 | L 0.3 | C -1.23 | E -2.83 | M -0.33 | D -1.1 | S -1.11 | Q -1.96 | G -1.48 | H -1.66 | P -1.33 | N -1.22 | F -0.61 | T -1.57 | V 0.49 | R -1.44 | A -1.44 | Y -2.38
T209: D -1.17 | P -0.71 | Y -0.71 | Q -0.66 | F -0.85 | K -1.12 | N -0.52 | A -0.04 | H -0.13 | I -0.34 | S 0.1 | V 0.51 | W -0.85 | L -0.72 | C -1.07 | R -0.83 | M 0.74
